The text below walks through data of the DeepSol protein solubility set.

A short description of the data set: soluble on expression in E. coli; label from the status in PepcDB or PDB records.
With “MHSGDFMSVSTPTRDDFAALLEESFASNDLAEGYVAKGIVTAIEKDVAIVDVGLKVEGRVPLKEFGAKSKDGTLKVGDEVEVYVERIENALGEAVLSREKARREESWVKLEAKFEAGERVEGVIFNQVKGGFTVDLDGAVAFLPRSQVDIRPIRDVTPLMHNPQPFEILKMDKRRGNIVVSRRTVLEESRAEQRSEIVQNLEEGQVVDGVVKNITDYGAFVDLGGIDGLLHVTDMAWRRVNHPSEILNIGQQVKVQIIRINQETHRISLGMKQLESDPWDGISAKYPVGKKISGTVTNITDYGAFVELEPGIEGLIHISEMSWTKKNVHPGKILSTSQEVDVVVLEVDPSKRRISLGLKQTLENPWQAFAFSHPAGTEVEGEVKNKTEFGLFIGLEGDVDGMVHLSDLDWNRPGEQVIEEFNKGDVVKAVVLDVDVEKERISLGIKQLGKDAVGEAATSGDLRKNAVVSCEVIAVNDGGVEVKLVNHEDITSFIRRNDLARDRDDQRPERFAVGQVFDARVVNFSKKDRKVMLSIKALEIAEEKEAVAQFGSSDSGASLGDILGAALKNRGELEHHHHHH”, the “soluble on expression in E. coli” value was “soluble”.
With “MQSITPPLIAVIGSDASGKSTVCEHLITVVEKYGAAERVHLGKQAGNVGRAVTKLPLMGKSLHKTIERNQVKTAKKLPGPVPALVITAFVARRLLRFRHMLACRRRGLIVLTDRYPQDQIPGAYDGTVFPPNVEGGRFVSWLASQERKAFHWMASHKPDLVIKLNVDLEVACARKPDHKRESLARKIAITPQLTFGGAQLVDIDANQPLEQVLVDAEKAITDFMTARGYH” the entry was “not soluble”; with “GPLGSGALKWVLCNYDFQARNSSELSVKQRDVLEVLDDSRKWWKVRDPAGQEGYVPYNILTPYPAAAS”, “soluble”; with “MSLSSPTADVEKLRRIIEVARGDRRADFVVKNAQIVDLVNEEIFEGDIAVAEGFIAGIGSYSGVEECEASNLVAVPGLIDAHTHIEMSMLTVSEFARLVVPRGTTGVVADPHEIANVLGKDGVMLMLEEARSTPLRFYCMVPSCVPSSPLETSGARIGVEEIRELLEEEEVLGLAEMMNFPGVVSADREVLEKIVLAGIVDGHAPGLRGKKLNAYIAAGASSDHETTSFEEGKEKLRLGMWVMIREGSAARNLVALKGLTGNRHTMLVTDGDRSVKDIIEEGYLDHVFRRAIEEGIDEIKALQMLTLNPAEYFGINAGLIAPSRLADIVLLKNLRKFEVRDVFVGGRRPEFKRFNHPEWAKKTVKARKITPESIQLKTGRVRVIEVYDGEIVTGEAIEEVQGVDVERDILKAVVVERHIRSGRVGKAYVRGFGLKRGAIAQSIAHDAHNIVCVGVDDGSICAAVNRVIELQGGIVVADAEVRAELPLPIAGIMSDERAERVLERLSEIEEEVRKLGCRLKSPVITLSFIALPVIPKLKLTDLGLVDVEAFRVVDLQADEGHHHHHH”, “not soluble”.
Then “MGSDKIHHHHHHMFLKNCWYVAAWSHEIDRTLQPQTFLGENVVLYRKQDGTPVALEDACPHRKLPLSDGALQGDTVECGYHGLTFDCAGACVAAPTQKDAIPKRATVKSYPVVDRYRFTWIWMGDPAEADPDLIFPIPNFDDPTWGKTDGGVLDIDCNYLWVVDNLLDPSHVAWVHVTSFAGGGTDGAPLQVDKTEHGVQVTRWIFGEPPSPYYENLLAFQGPCDRLQHYEMTRPAMATNMSIYTPPGTGGYGRSPVENTFINISYNFMTPITEDKTRYFWFQHRNSEPDNVEMSETMNKGAVMAFHEDKAILEKVHTGMKHAVTPHIDLGLDAGAKTFRLGLQKAIETENA”, with “not soluble”.
With “MRVLFIGDVMAEPGLRAVGLHLPDIRDRYDLVIANGENAARGKGLDRRSYRLLREAGVDLVSLGNHAWDHKEVYALLESEPVVRPLNYPPGTPGKGFWRLEVGGESLLFVQVMGRIFMDPLDDPFRALDRLLEEEKADYVLVEVHAEATSEKMALAHYLDGRASAVLGTHTHVPTLDATRLPKGTLYQTDVGMTGTYHSIIGGEVETFLARFLTGRPQPFRAAQGKARFHATELVFEGGRPVAISPYVWEEP” the entry was “soluble”; with “MNDEDSEERRHHPKVPRLARQSHPEPPGPSSSTSSTPLFTDPTIHTILDQIGQRLASFSESDVKRIKNYLSTVTVTQEACVLLLLPNKEREKLMFAEIERHILENYEYSMIIHRYVNDVLKHAIETQFVNPDKLDESNDAWKDGLKMISEQKMRSSRYTAARARSQRFAIANDSYFPRPEIVPSTDHPVFASRPSVSTQEVRTGRQQIDQEVSGRKREFHGKLIPITGVVEEPSVRINAELQQSETQQIGDSSDQTDTATPISDIATHQDPENEISPSVTEGSNDIADDAGAGDDFSESTTGAVQPEQQASEHSNSEGVEKSSCAESLKEQPDQSSPAVSNTVSENSNTDSEICSGIDQNPNSDNLESTIDVGEPLRNTSDQPSPDPCSDVQIGVNSTTKQSTDPSVNVQLGHKSSDQPSTDPSAHAQLEDNCTIQPSTDPSSNDQLGDNTSDQNSTDPSSDVPMEDPGESGSAASTPPPDWDVAEVPIPQCSGHSDGNIGGTNEVTPPEQEAQVLAPRRSERSRIKNIWLSRDEVERLRYEFVPPPSRKDIPKCTAKKPEAEIPNVEPESSSTVESQRDEDQAVASASSVAEPLEEATTTSVPEPTEFQLSRDIYSTVKPTDEAHSPPIQAQPKKKATPRRKKADDVETVVADGTATIPKPKRKRPPRKKPEPKPNIVFETTPNPPTESFAANNNFQQFQFQNQPGSWTYNNGFGNGYGYGGGTTGYMDNLVGRGFDTVSQQPGFQNQGYEFTGLPANNSNNFPFL”, “not soluble”; with “MEQFINPRVKDIQISGIRQFSNMIQNYDNLISLTIGQSDFPTPSLVKEAAKRAITENYTSYTHNAGLLELRKAACNFVKDNYDLHYSPETETIVTIGASEAIDVAFRTILEPGTEVILPAPIYPGYEPIIRLCGATPIFIDVRETGFRLTAEALENAITEKTRCVVLPYPSNPTGVTLSKKELQDIADVLKDKNIFVLSDEIYSELVYEQTHTSIAHFPEMREKTIVINGLSKSHSMTGWRIGLLFAPSYLAGHILKVHQYNVTCATSIAQYAAIEALTAAKDAPKMMRHQYKKRRDYVYNRLIQMGLTVEKPTGAFYLFPYVGHLTSSSFDFALDLVKEAGLAVVPGTAFSEYGEGYLRLSYAYSIETLKEGCDRLEAFLQQKAKS”, “not soluble”.
With “MGSDKIHHHHHHMAETIETMGGQAALDHVSRLLSLKVDIRGLEHLPAEGRVVIVANHPTGIGDGVAVYDALKTHRPDIVFYANADAHRVCPRFDDVLIPVEWVEEKRSRERMRLTLSMTREAMEAERALMIFPAGRLAVTDAEGRLSDPPWMSSAVSIARKYGAPIAPIHLEGPWSTLFHLFGRLSRELRDITLFHELLNKTGRRFSLTIGPPVDPEALPRDAEQATEVLKRYVERQLPNEPTSPLT”, the “soluble on expression in E. coli” value is recorded as “not soluble”.
Regarding “VTAVPTDSAEKPAVADAGVRSVTRVIDLLELFDAAHPTRSLKELVEGTKLPKTTVVRLVATMCARSVLTSRADGSYSLGPEMLRWVRLAGRTWAPPEEVVDIMRQLSADTGETVNLYIRQGLSRVVVAQCESTATVRSVIPLGVPYPLWAGAAGKILLLAAPELIDDVAADSPHGPEFADQLREKVEDGRERGYQLVHGERELGSSGLSFPLVDSHGTVVAALTLGGPTGRFTEDRTPHYIECTRAAAEEISAIGLPGLD”, the “soluble on expression in E. coli” value was “soluble”.
With “MGSDKIHHHHHHMSEENKIGTYQFVAEPFHVDFNGRLTMGVLGNHLLNCAGFHASDRGFGIATLNEDNYTWVLSRLAIELDEMPYQYEKFSVQTWVENVYRLFTDRNFAVIDKDGKKIGYARSVWAMINLNTRKPADLLALHGGSIVDYICDEPCPIEKPSRIKVTSNQPVATLTAKYSDIDINGHVNSIRYIEHILDLFPIELYQTKRIRRFEMAYVAESYFGDELSFFCDEVSENEFHVEVKKNGSEVVCRSKVIFE” the entry was “not soluble”; with “MNRRQFLGSAAAVSLASAASFARAHGHADYHHHHDMQPAAASAYTAVRQTAAHCLDAGQVCLTHCLSLLTQGDTSMSDCAVAVRQMLALCGAVHDLAAQNSPLTRDAAKVCLEACKQCAKACKEHSAHHAECKACYESCLDCIKECEKLAALEHHHHHH”, “soluble”.
With “MWKWEAENDAKGVVVIAHNILEHTGRYAYVITMLRRNGYHVIMGDLPGQGQTSRANKGQIENFQTYHESLLDWLKIANEYKIPTYVLGVGLGGLILLNLLEKVELPIEGMMLISPMLELQKNGKNRKDKLVSNIGKISKDTRFNVGVEPKDLTRNLEIVEETVNDGLMLKKATYHWYNTINETMKDTMAHIHDIQPMPTLLMYGTKDLIVDTRAIDEFKEKYQTPELYFKAWQGFYHEVHNEPERDEVMRYILTFLNNSVN” the entry was “not soluble”.
